Key:
3T3 fibroblasts = experiment: Surface enzyme activity assay of transiently transfected 3T3 fibroblasts (4-methylumbelliferyl β-D-glucuronide); format: cell-based, murine
Experimental: (§1) For performing surface enzyme activity assay, transiently-transfected 3T3 fibroblasts in 96-well microplates were washed once with phosphate-buffered saline and immediately assayed for βG activity by adding about 200 μl of phosphate-buffered saline (pH 7.0) buffer containing 0.1% of BSA and 0.25 mM of a β-glucuronidase substrate, 4-methylumbelliferyl β-D-glucuronide, for 30 min at 37° C. About 150 μl of the resulting mixture was transferred to a 96-well fluorescence microplate and mixed with about 75 μl of a stop buffer containing about 1 M of glycine and about 0.5 M of sodium bicarbonate at pH 11. The fluorescence of each mixture was measured at an excitation wavelength of 365 nm and an emission wavelength of 455 nm.
3T3 fibroblasts were transfected with plasmid DNAs using lipofectamine. After about 48 hour, the transfected cells were washed with phosphate-buffered saline and immediately assayed for β-glucuronidase activity by adding 4-methylumbelliferyl β-D-glucuronide for about 30 min at 37° C. The fluorescence (MUG reading as shown) of the resulting mixture was measured. The β-glucuronidase activity in the culture medium of transfected cells was also measured in an analogous way.

EJ cells = experiment: Surface β-glucuronidase enzyme activity of stable EJ cells; format: cell-based, human; settings: triplicate determinations
Experimental: as §1
The results shown are the mean values of triplicate determinations. EJ/mβG cells display about 2-3 fold more β-glucuronidase activity than EJ/eβG cells and about 5-fold higher activity than EJ/hβG cells. […] The enzymatic activity of E. coli β-glucuronidase in EJ cells are relatively higher than human β-glucuronidase, even though the expression levels of E. coli β-glucuronidase present on EJ/eβG cells are relatively lower than the expression levels of human β-glucuronidase.

[1] = Specific activity and pH profile of purified recombinant β-glucuronidases; format: biochemical; settings: purified recombinant protein, n=3; for maximal specific activity: at optimal pH
From the text: It is contemplated that the disparity between the relative surface expression levels the relative enzymatic activity of human β-glucuronidase, mouse β-glucuronidase, and E. coli β-glucuronidase in EJ cells is probably because of the neutral pH optimum of E. coli β-glucuronidase or a highly specific enzyme activity for the recombinant E. coli β-glucuronidase enzyme, which could cause the relatively effective hydrolysis of glucuronide substrates even though even though the expression levels of E. coli β-glucuronidase present on EJ/eβG cells are relatively lower than the expression levels of human β-glucuronidase. To differentiate these possibilities, recombinant forms of each enzyme are purified in order to measure accurately their specific activities at defined pH values.
The relative enzymatic activities (percentage maximum activity) of these recombinant enzymes at the indicated pH values are shown (n=3).
E. coli β-glucuronidase display a maximal specific activity of about 20,000 U/mg whereas human β-glucuronidase and mouse β-glucuronidase had maximal specific activities of abut 1600 U/mg and about 1100 U/mg, respectively.

B1: hβG-e-B7: human β-glucuronidase fused to Ig-like C2-type and Ig-hinge-like domains, TM and cytoplasmic tail of murine B7-1 (protein)
chain: LQGGMLYPQESPSRECKELDGLWSFRADFSDNRRRGFEEQWYRRPLWESGPTVDMPVPSSFNDISQDWRLRHFVGWVWYEREVILPERWTQDLRTRVVLRIGSAHSYAIVWVNGVDTLEHEGGYLPFEADISNLVQVGPLPSRLRITIAINNTLTPTTLPPGTIQYLTDTSKYPKGYFVQNTYFDFFNYAGLQRSVLLYTTPTTYIDDITVTTSVEQDSGLVNYQISVKGSNLFKLEVRLLDAENKVVANGTGTQGQLKVPGVSLWWPYLMHERPAYLYSLEVQLTAQTSLGPVSDFYTLPVGIRTVAVTKSQFLINGKPFYFHGVNKHEDADIRGKGFDWPLLVKDFNLLRWLGANAFRTSHYPYAEEVMQMCDRYGIVVIDECPGVGLALPQFFNNVSLHHHMQVMEEVVRRDKNHPAVVMWSVANEPASHLESAGYYLKMVIAHTKSLDPSRPVTFVSNSNYAADKGAPYVDVICLNSYYSWYHDYGHLELIQLQLATQFENWYKKYQKPIIQSEYGAETIAGFHQDPPLMFTEEYQKSLLEQYHLGLDQKRRKYVVGELIWNFADFMTEQSPTRVLGNKKGIFTRQRQPKSAAFLLRERYWKIANETRYPHSVAKSQCLENSPFTVDEQKLISEEDLADFSTPNITESGNPSADTKRITCFASGGFPKPRFSWLENGRELPGINTTISQDPESELYTISSQLDFNTTRNHTIKCLIKYGDAHVSEDFTWEKPPEDPPDSKNTLVLFGAGFGAVITVVVIVVIIKCFCKHRSCFRRNEASRETNNSLTFGPEEALAEQTVFL
3T3 fibroblasts
  β-glucuronidase enzyme activity on the cell surface: greatest levels

B2: mβG-e-B7: murine β-glucuronidase fused to immunoglobulin-like C2-type extracellular region, transmembrane domain and cytoplasmic tail of murine B7-1 antigen (protein)
chain: LKGGMLFPKESPSRELKALDGLWHFRADLSNNRLQGFEQQWYRQPLRESGPVLDMPVPSSFNDITQEAALRDFIGWVWYEREAILPRRWTQDTDMRVVLRINSAHYYAVVWVNGIHVVEHEGGHLPFEADISKLVQSGPLTTCRITIAINNTLTPHTLPPGTIVYKTDTSMYPKGYFVQDTSFDFFNYAGLHRSVVLYTTPTTYIDDITVITNVEQDIGLVTYWISVQGSEHFQLEVQLLDEDGKVVAHGTGNQGQLQVPSANLWWPYLMHEHPAYMYSLEVKVTTTESVTDYYTLPVGIRTVAVTKSKFLINGKPFYFQGVNKHEDSDIRGKGFDWPLLVKDFNLLRWLGANSFRTSHYPYSEEVLQLCDRYGIVVIDECPGVGIVLPQSFGNESLRHHLEVMEELVRRDKNHPAVVMWSVANEPSSALKPAAYYFKTLITHTKALDLTRPVTFVSNAKYDADLGAPYVDVICVNSYFSWYHDYGHLEVIQPQLNSQFENWYKTHQKPIIQSEYGADAIPGIHEDPPRMFSEEYQKAVLENYHSVLDQKRKEYVVGELIWNFADFMTNQSPLRVIGNKKGIFTRQRQPKTSAFILRERYWRIANETGGHGSGPRTQCFGSRPFTFVDEQKLISEEDLADFSTPNITESGNPSADTKRITCFASGGFPKPRFSWLENGRELPGINTTISQDPESELYTISSQLDFNTTRNHTIKCLIKYGDAHVSEDFTWEKPPEDPPDSKNTLVLFGAGFGAVITVVVIVVIIKCFCKHRSCFRRNEASRETNNSLTFGPEEALAEQTVFL
EJ cells; higher activity
  surface β-glucuronidase activity of EJ/mβG cells relative to EJ/hβG cells: about 5 fold
EJ cells; more activity
  surface β-glucuronidase activity of EJ/mβG cells relative to EJ/eβG cells: 2-3 fold

B3: E. coli β-glucuronidase: purified recombinant E. coli β-glucuronidase protein (protein, UniProt P05804 1-603, looked up)
Beta-glucuronidase: MLRPVETPTREIKKLDGLWAFSLDRENCGIDQRWWESALQESRAIAVPGSFNDQFADADIRNYAGNVWYQREVFIPKGWAGQRIVLRFDAVTHYGKVWVNNQEVMEHQGGYTPFEADVTPYVIAGKSVRITVCVNNELNWQTIPPGMVITDENGKKKQSYFHDFFNYAGIHRSVMLYTTPNTWVDDITVVTHVAQDCNHASVDWQVVANGDVSVELRDADQQVVATGQGTSGTLQVVNPHLWQPGEGYLYELCVTAKSQTECDIYPLRVGIRSVAVKGEQFLINHKPFYFTGFGRHEDADLRGKGFDNVLMVHDHALMDWIGANSYRTSHYPYAEEMLDWADEHGIVVIDETAAVGFNLSLGIGFEAGNKPKELYSEEAVNGETQQAHLQAIKELIARDKNHPSVVMWSIANEPDTRPQGAREYFAPLAEATRKLDPTRPITCVNVMFCDAHTDTISDLFDVLCLNRYYGWYVQSGDLETAEKVLEKELLAWQEKLHQPIIITEYGVDTLAGLHSMYTDMWSEEYQCAWLDMYHRVFDRVSAVVGEQVWNFADFATSQGILRVGGNKKGIFTRDRKPKSAAFLLQKRWTGMNFGEKPQQGGKQ
[1]
  maximal specific activity: about 20,000 U/mg
  pH of maximal/optimal enzymatic activity: neutral pH range

B4: human β-glucuronidase: purified recombinant human β-glucuronidase protein (protein, listed as Homo sapiens)
chain: LQGGMLYPQESPSRECKELDGLWSFRADFSDNRRRGFEEQWYRRPLWESGPTVDMPVPSSFNDISQDWRLRHFVGWVWYEREVILPERWTQDLRTRVVLRIGSAHSYAIVWVNGVDTLEHEGGYLPFEADISNLVQVGPLPSRLRITIAINNTLTPTTLPPGTIQYLTDTSKYPKGYFVQNTYFDFFNYAGLQRSVLLYTTPTTYIDDITVTTSVEQDSGLVNYQISVKGSNLFKLEVRLLDAENKVVANGTGTQGQLKVPGVSLWWPYLMHERPAYLYSLEVQLTAQTSLGPVSDFYTLPVGIRTVAVTKSQFLINGKPFYFHGVNKHEDADIRGKGFDWPLLVKDFNLLRWLGANAFRTSHYPYAEEVMQMCDRYGIVVIDECPGVGLALPQFFNNVSLHHHMQVMEEVVRRDKNHPAVVMWSVANEPASHLESAGYYLKMVIAHTKSLDPSRPVTFVSNSNYAADKGAPYVDVICLNSYYSWYHDYGHLELIQLQLATQFENWYKKYQKPIIQSEYGAETIAGFHQDPPLMFTEEYQKSLLEQYHLGLDQKRRKYVVGELIWNFADFMTEQSPTRVLGNKKGIFTRQRQPKSAAFLLRERYWKIANETRYPHSVAKSQCLENSPFT
[1]
  maximal specific activity: ~1600 U/mg

B5: mouse β-glucuronidase: purified recombinant mouse β-glucuronidase protein (protein, listed as Mus musculus)
chain: LKGGMLFPKESPSRELKALDGLWHFRADLSNNRLQGFEQQWYRQPLRESGPVLDMPVPSSFNDITQEAALRDFIGWVWYEREAILPRRWTQDTDMRVVLRINSAHYYAVVWVNGIHVVEHEGGHLPFEADISKLVQSGPLTTCRITIAINNTLTPHTLPPGTIVYKTDTSMYPKGYFVQDTSFDFFNYAGLHRSVVLYTTPTTYIDDITVITNVEQDIGLVTYWISVQGSEHFQLEVQLLDEDGKVVAHGTGNQGQLQVPSANLWWPYLMHEHPAYMYSLEVKVTTTESVTDYYTLPVGIRTVAVTKSKFLINGKPFYFQGVNKHEDSDIRGKGFDWPLLVKDFNLLRWLGANSFRTSHYPYSEEVLQLCDRYGIVVIDECPGVGIVLPQSFGNESLRHHLEVMEELVRRDKNHPAVVMWSVANEPSSALKPAAYYFKTLITHTKALDLTRPVTFVSNAKYDADLGAPYVDVICVNSYFSWYHDYGHLEVIQPQLNSQFENWYKTHQKPIIQSEYGADAIPGIHEDPPRMFSEEYQKAVLENYHSVLDQKRKEYVVGELIWNFADFMTNQSPLRVIGNKKGIFTRQRQPKTSAFILRERYWRIANETGGHGSGPRTQCFGSRPFTF
[1]
  maximal specific activity: about 1100 U/mg

— patent US20080176225A1, “MEMBRANE BOUND REPORTER GENE SYSTEM” (priority 2007, published 2008)
